How the values were obtained:
Assay in all cases: pulldown; 150 mM NaCl, 50 mM Tris pH 8, 0.25% NP-40, 1 mM TCEP; 4 C, 2 h; 100 ug HeLa nuclear lysate
Details in all cases: protein: extract; label: 5' biotin (strand 1)
[1] = target: HOXC10 (Homo sapiens, UniProt Q9NYD6)
[2] = target: TEAD4 (Homo sapiens, UniProt Q15561)
[3] = target: ZNF24 (Homo sapiens, UniProt P17028)
[4] = target: T1, GLIS2 (Homo sapiens, UniProt Q9BZE0)
T1 sequence: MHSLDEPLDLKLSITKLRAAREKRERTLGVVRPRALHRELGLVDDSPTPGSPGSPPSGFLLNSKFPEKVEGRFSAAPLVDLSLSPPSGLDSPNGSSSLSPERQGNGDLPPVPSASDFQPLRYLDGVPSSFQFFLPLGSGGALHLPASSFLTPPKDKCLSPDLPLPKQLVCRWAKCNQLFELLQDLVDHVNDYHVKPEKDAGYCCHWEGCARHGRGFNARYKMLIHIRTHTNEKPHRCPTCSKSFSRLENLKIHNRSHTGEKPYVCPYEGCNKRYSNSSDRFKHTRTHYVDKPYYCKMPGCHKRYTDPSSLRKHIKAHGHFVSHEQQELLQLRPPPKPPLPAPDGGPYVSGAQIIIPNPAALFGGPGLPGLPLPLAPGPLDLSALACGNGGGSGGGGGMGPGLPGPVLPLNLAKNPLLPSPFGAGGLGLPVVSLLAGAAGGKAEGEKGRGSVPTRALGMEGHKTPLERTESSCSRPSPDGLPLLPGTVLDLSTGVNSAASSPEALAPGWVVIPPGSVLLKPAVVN

[5] = target: ZNF787 (Homo sapiens, UniProt Q6DD87)
Sequence of ZNF787 (Q6DD87 whole entry): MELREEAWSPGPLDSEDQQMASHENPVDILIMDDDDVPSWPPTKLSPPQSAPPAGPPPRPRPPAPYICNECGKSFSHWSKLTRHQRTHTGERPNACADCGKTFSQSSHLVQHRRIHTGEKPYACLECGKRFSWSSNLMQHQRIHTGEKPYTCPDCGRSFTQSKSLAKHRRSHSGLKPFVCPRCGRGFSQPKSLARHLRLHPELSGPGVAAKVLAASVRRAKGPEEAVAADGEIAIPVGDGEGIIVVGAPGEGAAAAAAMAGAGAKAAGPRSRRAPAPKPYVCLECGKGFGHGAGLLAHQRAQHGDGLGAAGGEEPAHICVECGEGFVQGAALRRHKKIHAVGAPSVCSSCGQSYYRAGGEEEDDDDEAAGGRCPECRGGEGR

[6] = target: T2, ZNF512B (Homo sapiens, UniProt Q96KM6)
T2 sequence: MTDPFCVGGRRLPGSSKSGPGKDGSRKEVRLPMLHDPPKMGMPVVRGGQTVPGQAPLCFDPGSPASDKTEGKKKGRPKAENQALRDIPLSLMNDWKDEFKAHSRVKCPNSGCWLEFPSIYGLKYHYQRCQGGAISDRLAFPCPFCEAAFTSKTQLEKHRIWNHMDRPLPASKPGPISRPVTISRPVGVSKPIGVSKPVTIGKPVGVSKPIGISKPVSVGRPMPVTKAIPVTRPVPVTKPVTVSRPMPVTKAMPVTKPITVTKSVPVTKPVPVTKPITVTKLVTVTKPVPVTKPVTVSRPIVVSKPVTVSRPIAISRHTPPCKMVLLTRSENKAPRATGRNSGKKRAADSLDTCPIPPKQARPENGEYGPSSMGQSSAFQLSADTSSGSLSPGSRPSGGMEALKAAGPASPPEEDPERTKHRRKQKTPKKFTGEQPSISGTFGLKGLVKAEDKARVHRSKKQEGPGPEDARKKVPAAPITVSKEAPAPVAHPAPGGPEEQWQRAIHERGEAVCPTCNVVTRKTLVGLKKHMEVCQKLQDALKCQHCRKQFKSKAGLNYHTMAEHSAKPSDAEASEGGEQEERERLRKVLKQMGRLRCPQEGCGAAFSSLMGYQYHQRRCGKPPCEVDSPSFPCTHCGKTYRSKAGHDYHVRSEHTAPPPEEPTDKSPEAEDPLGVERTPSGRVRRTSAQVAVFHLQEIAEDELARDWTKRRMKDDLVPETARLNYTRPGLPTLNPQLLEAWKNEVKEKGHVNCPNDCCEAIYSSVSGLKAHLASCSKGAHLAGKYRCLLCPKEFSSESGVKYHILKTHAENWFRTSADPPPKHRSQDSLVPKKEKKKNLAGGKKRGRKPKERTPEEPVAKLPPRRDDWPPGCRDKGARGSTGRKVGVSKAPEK

Sequence of HOXC10 (Q9NYD6 whole entry): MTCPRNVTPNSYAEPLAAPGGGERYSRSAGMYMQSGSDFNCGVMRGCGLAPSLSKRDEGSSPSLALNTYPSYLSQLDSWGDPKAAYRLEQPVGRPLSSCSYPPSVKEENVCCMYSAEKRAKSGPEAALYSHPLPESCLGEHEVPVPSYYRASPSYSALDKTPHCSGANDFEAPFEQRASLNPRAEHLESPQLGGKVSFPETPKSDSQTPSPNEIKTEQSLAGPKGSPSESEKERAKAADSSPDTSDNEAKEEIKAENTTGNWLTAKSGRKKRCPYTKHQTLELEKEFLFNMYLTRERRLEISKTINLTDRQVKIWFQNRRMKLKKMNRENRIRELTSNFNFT
Sequence of TEAD4 (Q15561 whole entry): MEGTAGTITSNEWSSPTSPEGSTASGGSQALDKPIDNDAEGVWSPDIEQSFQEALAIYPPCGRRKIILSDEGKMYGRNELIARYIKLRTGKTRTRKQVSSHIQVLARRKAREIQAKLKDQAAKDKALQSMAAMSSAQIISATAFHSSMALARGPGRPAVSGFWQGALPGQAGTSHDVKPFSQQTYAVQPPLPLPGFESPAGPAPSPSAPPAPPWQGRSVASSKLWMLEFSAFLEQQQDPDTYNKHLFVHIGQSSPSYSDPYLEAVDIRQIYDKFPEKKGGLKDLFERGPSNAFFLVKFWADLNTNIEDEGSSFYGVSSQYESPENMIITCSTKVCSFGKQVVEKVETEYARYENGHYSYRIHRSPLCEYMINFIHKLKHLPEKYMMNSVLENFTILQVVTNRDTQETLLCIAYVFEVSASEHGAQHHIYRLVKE
Sequence of ZNF24 (P17028 whole entry): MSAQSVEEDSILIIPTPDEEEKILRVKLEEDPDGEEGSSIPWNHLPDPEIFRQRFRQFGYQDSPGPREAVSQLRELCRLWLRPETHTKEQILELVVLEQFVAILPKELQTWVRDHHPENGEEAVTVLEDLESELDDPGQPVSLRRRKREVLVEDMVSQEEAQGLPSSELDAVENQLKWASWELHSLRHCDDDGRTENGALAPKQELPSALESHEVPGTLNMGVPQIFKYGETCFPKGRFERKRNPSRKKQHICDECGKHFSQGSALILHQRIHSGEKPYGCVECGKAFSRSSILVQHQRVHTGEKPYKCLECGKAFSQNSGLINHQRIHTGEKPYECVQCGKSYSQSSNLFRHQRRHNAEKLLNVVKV

B1: TATA-box (dsDNA)
DNA 1: GCGGCGCTCTATATAAGTGGGCAGTG
DNA 2: CACTGCCCACTTATATAGAGCGCCGC
- apparent K (half saturation) [1]: 87.8 nM

B2: TEAD (dsDNA)
DNA 1: TCGGGACCCAGGCCTGGAATGTTTCCACC
DNA 2: GGTGGAAACATTCCAGGCCTGGGTCCCGA
- apparent K (half saturation) [2]: 15.3 nM

B3: CTCF (dsDNA)
DNA 1: TCAGAGTGGCGGCCAGCAGGGGGCGCCCTTGCCAGA
DNA 2: TCTGGCAAGGGCGCCCCCTGCTGGCCGCCACTCTGA
- apparent K (half saturation) [3]: 388 nM
- apparent K (half saturation) [4]: 15 nM
- apparent K (half saturation) [5]: 370 nM
- apparent K (half saturation) [6]: 353 nM

From publication PMC5916898, “Global profiling of protein–DNA and protein–nucleosome binding affinities using quantitative mass spectrometry”
